B1: mouse anti-IL6R monoclonal antibody 1F7 (antibody, V domains shown)
VH: QVQLQQPGAELVKPGASVKLSCKASDYTFTSYWMHWVKQRPGQGLEWIGEINPSNGRTNYNEKFKNKATLTVDKSSSTAYVQLYSLTSEDSAVYYCARLSIHYVFDYWGQGTTLTVSS
VL: ELVLTQSPTTMAASPGEKITFTCSASSSISSNYLHWYQQKPGFSPKLLISGTSNLASGVPPRFSGSGSGTSYSLTIVTMEAEDVATYYCQQGSGIPFTFGSGTKLEIK
notes: Mouse hybridoma mAb
B2: mouse anti-IL6R monoclonal antibody 3C2 (antibody, V domains shown)
VH: QVQLQQPGTELVKPGASVKLSCKASGYTFTTYWIHWVKQRPGQGLEWIGEINPSNGRTNYNEHFKSKATLTVDKSSSTASMQLSSLTSADSAVYYCARLNTHYVFDSWGQGTTLTVSS
VL: B1 VL with L2I, F21I, S50Y, G51R, P61T, R62H, V77G
notes: Mouse hybridoma mAb
B3: mouse anti-IL6R monoclonal antibody 1H7 (antibody, V domains shown)
VH: B2 VH with T31N, I34M, E46D, S54T, H63N, S80Y, A89E, V116L
VL: B1 VL with L2I, M11L, A25V, G51R, N54T, P61A, V77G, I107L
notes: Mouse hybridoma mAb
B4: mouse anti-IL6R monoclonal antibody 1B5 (antibody, V domains shown)
VH: B1 VH with D26G, K63N, N66S, V81M, Y84S, S100N, I101T
VL: B1 VL with L2I, T10I, M11L, A25V, S50Y, G51R, P61A, V77G
notes: Mouse hybridoma mAb
B5: Tocilizumab (antibody, human IgG1, kappa, V domains shown)
VH: QVQLQESGPGLVRPSQTLSLTCTVSGYSITSDHAWSWVRQPPGRGLEWIGYISYSGITTYNPSLKSRVTMLRDTSKNQFSLRLSSVTAADTAVYYCARSLARTTAMDYWGQGSLVTVSS
VL: DIQMTQSPSSLSASVGDRVTITCRASQDISSYLNWYQQKPGKAPKLLIYYTSRLHSGVPSRFSGSGSGTDFTFTISSLQPEDIATYYCQQGNTLPYTFGQGTKVEIKR
notes: In house made; also called benchmark; Actemra
B6: mouse anti-IL6R monoclonal antibody 1D4 (antibody, V domains shown)
VH: QVQLQQPGAELVKPGASVKLSCKASGYTFTSYWMHWVKVRPGQGLEWIGEINPTNGRTNYNEDFKSKATLTVNSSSSTAYMQLSSLTSEDSAVYYCARLNTHYVFDYWGQGTTLTVSS
VL: B1 VL with L2I, T10I, M11L, A25V, S50Y, G51R, P61A, V77G
notes: Mouse hybridoma mAb
B7: mouse anti-IL6R monoclonal antibody 1A3 (antibody, V domains shown)
VH: QVQLQQPGAELVKPGASVKLSCKASGYTFTSYWMHWVKQRPAQGLEWIGEINPSNGRTNFNEKFKTKATLTVDKSSNTAYMQLSSLTSEDSAVYSCLRLNTHYVFDYWGQGTTLTVSS
VL: B1 VL with L2I, F21I, G51R, P61T, V77G, E82G
notes: Mouse hybridoma mAb purified on Protein A
B8: Chimeric 1H7 (antibody, human IgG1, kappa, V domains shown)
VH: B2 VH with T31N, I34M, E46D, S54T, H63N, S80Y, A89E, V116L
VL: EIVLTQSPTTLAASPGEKITFTCSVSSSISSNYLHWYQQKPGFSPKLLISRTSTLASGVPARFSGSGSGTSYSLTIGTMEAEDVATYYCQQGSGIPFTFGSGTKLELKR
notes: Mouse variable regions on human IgG1 / human kappa constant regions; also called chimeric antibody 1H7
B9: humanized antibody hu1H7-V5 (antibody, human IgG1, kappa, V domains shown)
VH: QVQLVQSGAEVKKPGASVKVSCKASGYTFTNYWMHWVRQAPGQGLEWIGEINPTNGRTNYNENFKSRVTLTVDTSTSTVYMELSSLRSEDTAVYYCARLNTHYVFDSWGQGTLVTVSS
VL: EIVLTQSPGTLSLSPGERATLSCSVSSSISSNYLHWYQQKPGLSPRLLISRTSTLASGIPARFSGSGSGTEYTLTISRMQSEDFAVYYCQQGSGIPFTFGQGTKLEIKR
notes: Human IgG1 / kappa

Positions count from the first letter of the chain named.

For orientation: EC50 means the concentration giving half of the maximal effect. The term IC50 denotes the concentration that inhibits the measured activity by half. A high value points to lower potency.

For one experiment, the target named is T1, macaca IL6R-his protein (macaca mulatta).
T1 chain: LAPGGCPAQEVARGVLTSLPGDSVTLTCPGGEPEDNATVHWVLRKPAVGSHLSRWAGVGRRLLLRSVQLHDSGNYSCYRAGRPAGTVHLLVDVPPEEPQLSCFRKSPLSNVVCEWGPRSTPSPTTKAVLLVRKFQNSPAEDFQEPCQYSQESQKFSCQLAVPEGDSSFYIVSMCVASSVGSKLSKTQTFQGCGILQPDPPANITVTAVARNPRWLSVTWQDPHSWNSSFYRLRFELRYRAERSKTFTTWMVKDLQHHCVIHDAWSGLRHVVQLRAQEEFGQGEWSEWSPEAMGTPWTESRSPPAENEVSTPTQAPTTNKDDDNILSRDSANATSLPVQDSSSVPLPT
The experiment in a line: indirect ELISA on plate-coated macaca IL6R-his. Here is the method:
(§1) The anti-IL6R antibodies were tested for their cross-reaction with macaca IL6R. Briefly, 96-well micro plates were coated with 2 μg/ml macaca IL6R-his protein (in house made, amino acid sequence set forth in SEQ ID NO:45) in carbonate/bicarbonate buffer (pH 9.6), 100 μl/well, for 2 hours at 37° C. ELISA plates were washed once with wash buffer (PBS+0.05% v/v Tween-20, PBST) and then blocked with 200 μl/well blocking buffer (5% w/v non-fatty milk in PBST) for 2 hours at 37° C. Plates were washed 4 times and incubated with 100 μl/well serially diluted anti-IL6R antibodies of the disclosure or controls, starting at 66.67 nM with 5-fold serial dilution in PBST with 2.5% w/v non-fat milk, and incubated at 37° C. for 40 minutes. ELISA plates were washed 4 times again and incubated with 100 μl/well Peroxidase AffiniPure Goat Anti-Mouse IgG, Fcγ Fragment Specific (1:5000 dilution in PBST buffer, Jackson ImmunoResearch Laboratories, Inc., Cat #115-035-071) for 40 minutes at 37° C. After the final wash, plates were incubated with 100 μl/well TMB (InnoReagents). The reaction was stopped 3-10 minutes later at room temperature with 50 μl/well 1M H₂SO₄, and the absorbance of each well was read on a microplate reader using dual wavelength mode with 450 nm for TMB and 630 nm as the reference wavelength. Then the OD (450-630) values were plotted against antibody concentration. Data was analyzed using Graphpad Prism software and EC₅₀ values were reported.
(In general: An ELISA detects its analyte on a solid surface through an enzyme-linked reagent.)
The molecule B1 had an EC50 of 0.14 nM. That is a sub-nanomolar value.

Molecule B2 displayed an EC50 of 0.296 nM.

The molecule B3 returned an EC50 of 0.213 nM.

Turning to B4, the EC50 was found to be 0.205 nM.

As for B5, the half-maximal effective concentration (EC50) is 0.0571 nM.

Another experiment deals with T1, macaca IL6R-his protein. The experiment in a line: indirect ELISA on plate-coated macaca IL6R-his. This is another data set of the same source. Here is the method:
as §1
With B6, the EC50 turned out to be 0.175 nM. This counts as sub-nanomolar.

In turn, B7 had an EC50 of 0.228 nM.

Take B5: a half-maximal response (EC50) required 0.0589 nM.

A further experiment addresses T2, human IL6R-Fc protein (human, biotin-labeled in the ELISAs (sites not given)).
T2 construct: In house made; also called biotin-labeled human IL6R-Fc protein
Nature of the experiment: capture ELISA: antibody captured on anti-IgG F(ab')2 coated plate, then biotin-labeled human IL6R-Fc, streptavidin-HRP. Here is the method:
For the capture ELISA, 96-well micro plates were coated with 2 μg/ml AffiniPure Goat Anti-Mouse IgG, F(ab′)₂ fragment specific (Jackson ImmunoResearch Laboratories, Inc., Cat #115-005-072) in PBS, 100 μl/well, and incubated for 2 hours at 37° C. Plates were washed once with wash buffer (PBS+0.05% v/v Tween-20, PBST) and then blocked with 200 μl/well blocking buffer (5% w/v non-fatty milk in PBST) overnight at 4° C. […] Plates containing captured anti-IL6R antibodies were incubated with biotin-labeled human IL6R-Fc protein (prepared in house, SEQ ID NO: 43, 39.5 ng/ml in 2.5% w/v non-fatty milk in PBST, 100 μl/well) for 40 minutes at 37° C., washed 4 times, and incubated with streptavidin conjugated HRP (1:10000 dilution in PBST, Jackson ImmunoResearch Laboratories, Inc., Cat #016-030-084, 100 μl/well) for 40 minutes at 37° C. After a final wash, plates were incubated with 100 μl/well ELISA substrate TMB (InnoReagents, Cat #TMB-S-002). The reaction was stopped 3-10 minutes later at room temperature with 50 μl/well 1M H₂SO₄, and the absorbance of each well was read on a microplate reader using dual wavelength mode at 450 nm for TMB and 630 nm as the reference wavelength. Then the OD (450-630) values were plotted against antibody concentration. Data was analyzed using Graphpad Prism software and EC₅₀ values were reported.
For the capture ELISA, AffiniPure Goat Anti-Human IgG, F(ab′)₂ fragment specific (Jackson Immuno Research, Cat #109-005-097) was used instead of AffiniPure Goat Anti-Mouse IgG, F(ab′)₂ fragment specific, 100 μl/well.
Target sequence in this assay (chain, as listed by the source limits assumed): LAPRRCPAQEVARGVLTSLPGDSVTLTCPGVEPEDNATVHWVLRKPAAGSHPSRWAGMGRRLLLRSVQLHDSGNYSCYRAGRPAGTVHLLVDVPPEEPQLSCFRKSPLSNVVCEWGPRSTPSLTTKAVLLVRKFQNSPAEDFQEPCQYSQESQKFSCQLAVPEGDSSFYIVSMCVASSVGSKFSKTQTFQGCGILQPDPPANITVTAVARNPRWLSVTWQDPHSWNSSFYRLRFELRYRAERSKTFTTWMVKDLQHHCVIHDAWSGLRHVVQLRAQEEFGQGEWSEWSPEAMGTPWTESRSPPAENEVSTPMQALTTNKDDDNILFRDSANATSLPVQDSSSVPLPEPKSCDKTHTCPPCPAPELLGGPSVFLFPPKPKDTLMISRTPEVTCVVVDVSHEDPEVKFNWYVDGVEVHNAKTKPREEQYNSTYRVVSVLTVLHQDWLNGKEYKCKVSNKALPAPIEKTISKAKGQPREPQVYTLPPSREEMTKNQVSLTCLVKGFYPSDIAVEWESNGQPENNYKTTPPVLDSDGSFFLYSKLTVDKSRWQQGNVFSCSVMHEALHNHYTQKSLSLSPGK
B3: the EC50 turned out to be 0.0553 nM.

Molecule B4 had an EC50 of 0.0627 nM.

Consider B5, for which the concentration giving a half-maximal response (EC50) was 0.191 nM.

The molecule B8 returned an EC50 of 0.078 nM.

The target in another experiment is T2, human IL6R-Fc protein. Nature of the experiment: ligand blocking ELISA: antibody pre-incubated with biotin-labeled human IL6R-Fc, added to plate-coated human IL6 (blocked ligand: human IL6). Here is the method:
(§2) The next day, anti-IL6R antibodies or controls were diluted with biotin labeled human IL6R-Fc protein (prepared in house, SEQ ID NO: 43, 39.5 ng/ml in 2.5% w/v non-fatty milk in PBST), starting at 100 nM with a 4-fold serial dilution, and incubated at room temperature for 40 minutes. […] Plates were washed for 4 times using wash buffer, and added and incubated with 100 μl/well of streptavidin conjugated HRP (1:10000 dilution in PBST buffer, Jackson ImmunoResearch Laboratories, Inc., Cat #016-030-084) for 40 minutes at 37° C. Plates were washed again using wash buffer. Finally, TMB was added and the reaction was stopped using 1M H₂SO₄. The absorbance was read on a microplate reader using dual wavelength mode with 450 nm for TMB and 630 nm as the reference wavelength, and then the OD (450-630) values were plotted against antibody concentration. Data was analyzed using Graphpad Prism software and IC₅₀ values were reported.
Turning to B1, 0.617 nM corresponded to half-maximal inhibition (IC50).

B6 returned an IC50 of 0.957 nM. This IC50 lies about 1.6-fold higher than the previous one.

B5 came in with an IC50 of 2.3 nM. This IC50 lies about 2.4-fold higher than the previous one.

The next experiment addresses T2, human IL6R-Fc protein. The description is as above. This is another data set of the same source. Here is the method: ELISA plates were washed once with wash buffer (PBS+0.05% v/v Tween-20, PBST) and then blocked with 200 μl/well blocking buffer (5% w/v non-fatty milk in PBST) overnight at 4° C.
as §2
Target sequence in this assay (chain, as listed by the source limits assumed): as above
The molecule B9 registered an IC50 of 0.223 nM.

Consider B3, for which inhibition was half-maximal at 0.189 nM (IC50).

B5 gave a half-inhibitory concentration (IC50) of 1.03 nM.

B8 had a 50% inhibitory concentration (IC50) of 0.161 nM.

The values above are taken from patent US20230167182A1 (BIOSION, published 2023).
